Measured values published in paper PMC9705314, “Characterization of a new potent and long-lasting single chain peptide agonist of RXFP1 in cells and in vivo translational models” (Scientific Reports, 2022).

Tests used:
[1] = biological target: rat RXFP1 (rat) (UniProt Q6R6I6)
[2] = biological target: human RXFP1 (human) (UniProt Q9HBX9)
Chain of human RXFP1 (human) (Q9HBX9 whole entry): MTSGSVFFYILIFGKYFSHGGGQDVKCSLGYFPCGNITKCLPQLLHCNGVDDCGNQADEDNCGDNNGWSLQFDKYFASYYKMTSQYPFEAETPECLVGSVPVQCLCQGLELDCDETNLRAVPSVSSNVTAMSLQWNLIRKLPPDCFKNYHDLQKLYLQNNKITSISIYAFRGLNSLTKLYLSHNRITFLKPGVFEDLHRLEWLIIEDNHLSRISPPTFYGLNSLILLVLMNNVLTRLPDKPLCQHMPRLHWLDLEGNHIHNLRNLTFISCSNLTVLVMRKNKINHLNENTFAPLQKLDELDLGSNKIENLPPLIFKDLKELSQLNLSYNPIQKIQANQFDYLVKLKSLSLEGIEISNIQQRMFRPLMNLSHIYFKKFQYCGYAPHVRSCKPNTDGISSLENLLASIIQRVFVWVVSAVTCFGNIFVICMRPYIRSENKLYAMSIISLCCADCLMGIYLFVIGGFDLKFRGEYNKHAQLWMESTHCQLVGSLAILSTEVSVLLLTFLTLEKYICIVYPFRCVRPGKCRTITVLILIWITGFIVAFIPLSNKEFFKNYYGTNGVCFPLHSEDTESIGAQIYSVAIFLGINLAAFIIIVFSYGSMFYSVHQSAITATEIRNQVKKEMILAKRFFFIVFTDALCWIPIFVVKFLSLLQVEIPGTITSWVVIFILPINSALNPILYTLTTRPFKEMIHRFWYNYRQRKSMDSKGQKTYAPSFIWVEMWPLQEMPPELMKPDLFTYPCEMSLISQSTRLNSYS

Chain of rat RXFP1 (rat) (Q6R6I6 whole entry): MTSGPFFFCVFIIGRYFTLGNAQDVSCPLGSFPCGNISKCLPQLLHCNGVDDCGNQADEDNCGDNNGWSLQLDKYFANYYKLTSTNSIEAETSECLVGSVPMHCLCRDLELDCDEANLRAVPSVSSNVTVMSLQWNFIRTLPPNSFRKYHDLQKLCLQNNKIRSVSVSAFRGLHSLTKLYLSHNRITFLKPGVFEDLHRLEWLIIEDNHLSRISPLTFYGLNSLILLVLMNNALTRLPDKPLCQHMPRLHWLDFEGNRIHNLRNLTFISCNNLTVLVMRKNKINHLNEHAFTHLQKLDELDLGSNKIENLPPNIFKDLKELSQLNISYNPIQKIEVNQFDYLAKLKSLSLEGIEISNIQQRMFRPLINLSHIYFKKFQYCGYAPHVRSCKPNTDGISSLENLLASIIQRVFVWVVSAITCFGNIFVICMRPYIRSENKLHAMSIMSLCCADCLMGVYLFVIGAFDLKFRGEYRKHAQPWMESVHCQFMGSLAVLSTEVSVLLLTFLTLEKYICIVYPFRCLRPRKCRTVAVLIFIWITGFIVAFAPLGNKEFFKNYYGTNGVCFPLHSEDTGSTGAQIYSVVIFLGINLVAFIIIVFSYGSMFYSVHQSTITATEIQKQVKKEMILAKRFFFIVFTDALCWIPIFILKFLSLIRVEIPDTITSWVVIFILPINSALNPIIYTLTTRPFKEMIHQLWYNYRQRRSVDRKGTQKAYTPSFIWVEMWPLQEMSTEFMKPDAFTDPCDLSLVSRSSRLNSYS

cAMP (HTRF) in HEK ratRXFP1 cells, EC50 [1]: 1.4 nM | cAMP (HTRF) in HEK ratRXFP1 cells, Emax (% of the 100 nM relaxin response) [1]: 95.6% | cAMP (HTRF) in EA.hy926 hRXFP1 cells, EC50 [2]: 0.06 nM | cAMP (HTRF) in EA.hy926 hRXFP1 cells, Emax (% of the 100 nM relaxin response) [2]: 100% | cAMP (HTRF) in OVCAR5 cells with endogenous human RXFP1, EC50 [2]: 1.8 nM | cAMP (HTRF) in OVCAR5 cells with endogenous human RXFP1, Emax (% of the 100 nM relaxin response) [2]: 96.2%
Substance: Human recombinant relaxin (B-29/A-24) (ligand)
